Measured values taken from the supplement of paper PMC10065799, “High-throughput profiling of sequence recognition by tyrosine kinases and SH2 domains using bacterial peptide display” (eLife, 2023).

Tests used:
Fyn = Fyn (UniProt P06241); test: phosphorylation enrichment, bacterial display (enrichment ratio); higher = better substrate or ligand; peptides without Tyr show the background
Fer (mouse) = test: as above
EPHB2 = EPHB2 (UniProt P29323); test: as above
Jak2 = Jak2 (UniProt O60674); test: as above
c-Src = test: as above
Hck = Hck (UniProt P08631); test: as above
EPHB1 = EPHB1 (UniProt P54762); test: as above
FGFR1 = FGFR1 (UniProt P11362); test: as above
MERTK = MERTK (UniProt Q12866); test: as above
Fes = Fes (UniProt P07332); test: as above
AncSZ = test: as above
FGFR3 = FGFR3 (UniProt P22607); test: as above
c-Abl (mouse) = test: as above
c-Src SH2 = test: SH2 binding enrichment of the phosphorylated peptide, bacterial display (enrichment ratio); higher = better substrate or ligand; peptides without Tyr show the background
Grb2 SH2 = Grb2 SH2 (UniProt P62993); test: as above
SHP2-C SH2 = test: as above
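Throughout, for SH2 binding enrichment of the phosphorylated peptide, bacterial display: peptide library displayed on the E. coli surface as eCPX fusions, selected cells deep-sequenced, score is each peptide's frequency after selection divided by its frequency in the input.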
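Throughout, for phosphorylation enrichment, bacterial display: 11-residue human phosphosite peptides and single-mutation variants displayed on the E. coli surface, counted by deep sequencing, each peptide's frequency after selection divided by its frequency in the unselected input library; frequency after pTyr selection over input frequency; kinase dosed for 20-30% of maximal phosphorylation in three min.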

Chain of FGFR1 (P11362 whole entry, looked up): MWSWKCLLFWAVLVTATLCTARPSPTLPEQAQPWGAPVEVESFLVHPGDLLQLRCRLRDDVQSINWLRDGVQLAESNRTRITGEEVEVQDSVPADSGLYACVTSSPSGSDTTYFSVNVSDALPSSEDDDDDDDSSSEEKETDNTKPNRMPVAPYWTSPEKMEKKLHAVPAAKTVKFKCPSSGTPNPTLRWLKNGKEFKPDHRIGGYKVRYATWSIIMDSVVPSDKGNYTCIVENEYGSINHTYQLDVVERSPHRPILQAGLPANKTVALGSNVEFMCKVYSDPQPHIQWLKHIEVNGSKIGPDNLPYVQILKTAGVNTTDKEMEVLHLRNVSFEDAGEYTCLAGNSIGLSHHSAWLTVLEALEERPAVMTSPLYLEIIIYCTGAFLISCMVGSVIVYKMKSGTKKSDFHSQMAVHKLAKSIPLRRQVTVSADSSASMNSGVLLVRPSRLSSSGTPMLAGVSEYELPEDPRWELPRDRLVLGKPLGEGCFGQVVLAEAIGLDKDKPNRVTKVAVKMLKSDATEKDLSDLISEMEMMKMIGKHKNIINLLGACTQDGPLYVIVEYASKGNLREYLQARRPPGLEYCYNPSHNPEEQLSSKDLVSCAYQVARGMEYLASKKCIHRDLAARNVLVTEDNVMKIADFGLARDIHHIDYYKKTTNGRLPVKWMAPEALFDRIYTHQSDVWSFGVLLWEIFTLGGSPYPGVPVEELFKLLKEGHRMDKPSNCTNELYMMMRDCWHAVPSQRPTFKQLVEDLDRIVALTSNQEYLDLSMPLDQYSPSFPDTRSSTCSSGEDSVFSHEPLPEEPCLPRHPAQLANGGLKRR
Chain of Grb2 SH2 (P62993 whole entry, looked up): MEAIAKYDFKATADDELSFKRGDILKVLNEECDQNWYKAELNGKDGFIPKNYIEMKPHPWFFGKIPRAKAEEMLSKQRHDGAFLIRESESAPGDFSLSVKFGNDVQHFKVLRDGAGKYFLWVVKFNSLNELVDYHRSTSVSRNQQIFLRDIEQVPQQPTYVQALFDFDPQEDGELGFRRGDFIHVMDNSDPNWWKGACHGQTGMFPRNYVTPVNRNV
Chain of Fyn (P06241 whole entry, looked up): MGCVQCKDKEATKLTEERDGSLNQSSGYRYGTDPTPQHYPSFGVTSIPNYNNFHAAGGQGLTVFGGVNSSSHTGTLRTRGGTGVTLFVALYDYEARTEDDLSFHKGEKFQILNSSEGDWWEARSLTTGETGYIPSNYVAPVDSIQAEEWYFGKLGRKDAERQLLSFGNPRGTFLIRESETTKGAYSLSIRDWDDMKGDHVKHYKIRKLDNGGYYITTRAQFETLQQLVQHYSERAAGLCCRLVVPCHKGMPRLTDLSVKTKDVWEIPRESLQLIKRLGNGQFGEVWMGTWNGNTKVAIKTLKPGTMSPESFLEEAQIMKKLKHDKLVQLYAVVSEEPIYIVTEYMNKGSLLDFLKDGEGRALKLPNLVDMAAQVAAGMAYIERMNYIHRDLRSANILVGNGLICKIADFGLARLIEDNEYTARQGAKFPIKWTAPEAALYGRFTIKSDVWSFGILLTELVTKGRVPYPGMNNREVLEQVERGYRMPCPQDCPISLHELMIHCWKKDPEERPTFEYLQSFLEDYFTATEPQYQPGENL
Chain of MERTK (Q12866 whole entry, looked up): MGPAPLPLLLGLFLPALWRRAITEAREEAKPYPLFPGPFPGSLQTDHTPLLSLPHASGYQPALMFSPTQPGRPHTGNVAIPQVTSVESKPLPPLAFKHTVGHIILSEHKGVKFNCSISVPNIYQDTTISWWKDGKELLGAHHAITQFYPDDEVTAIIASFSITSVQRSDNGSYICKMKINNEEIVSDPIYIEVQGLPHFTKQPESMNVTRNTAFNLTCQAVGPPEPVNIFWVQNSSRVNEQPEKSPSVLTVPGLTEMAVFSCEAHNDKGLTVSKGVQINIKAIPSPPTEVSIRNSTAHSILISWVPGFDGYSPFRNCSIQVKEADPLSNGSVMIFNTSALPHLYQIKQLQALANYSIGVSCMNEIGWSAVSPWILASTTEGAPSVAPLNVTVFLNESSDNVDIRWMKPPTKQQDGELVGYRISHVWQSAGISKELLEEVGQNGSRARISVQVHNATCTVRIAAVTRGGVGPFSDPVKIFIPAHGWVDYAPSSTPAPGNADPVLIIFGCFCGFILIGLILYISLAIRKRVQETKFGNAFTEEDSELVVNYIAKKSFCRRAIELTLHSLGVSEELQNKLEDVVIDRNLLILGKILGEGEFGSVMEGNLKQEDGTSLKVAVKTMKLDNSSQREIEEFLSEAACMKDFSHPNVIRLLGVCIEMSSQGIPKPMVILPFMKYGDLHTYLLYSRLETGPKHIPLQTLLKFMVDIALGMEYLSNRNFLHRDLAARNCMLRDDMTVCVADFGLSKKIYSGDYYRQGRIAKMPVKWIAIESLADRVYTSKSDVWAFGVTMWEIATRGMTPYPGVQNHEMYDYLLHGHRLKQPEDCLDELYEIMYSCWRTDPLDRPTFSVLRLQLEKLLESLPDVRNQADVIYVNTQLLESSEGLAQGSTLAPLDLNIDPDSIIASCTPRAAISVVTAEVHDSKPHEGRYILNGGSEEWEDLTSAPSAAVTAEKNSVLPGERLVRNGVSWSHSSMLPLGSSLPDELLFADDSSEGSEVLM
Chain of Hck (P08631 whole entry, looked up): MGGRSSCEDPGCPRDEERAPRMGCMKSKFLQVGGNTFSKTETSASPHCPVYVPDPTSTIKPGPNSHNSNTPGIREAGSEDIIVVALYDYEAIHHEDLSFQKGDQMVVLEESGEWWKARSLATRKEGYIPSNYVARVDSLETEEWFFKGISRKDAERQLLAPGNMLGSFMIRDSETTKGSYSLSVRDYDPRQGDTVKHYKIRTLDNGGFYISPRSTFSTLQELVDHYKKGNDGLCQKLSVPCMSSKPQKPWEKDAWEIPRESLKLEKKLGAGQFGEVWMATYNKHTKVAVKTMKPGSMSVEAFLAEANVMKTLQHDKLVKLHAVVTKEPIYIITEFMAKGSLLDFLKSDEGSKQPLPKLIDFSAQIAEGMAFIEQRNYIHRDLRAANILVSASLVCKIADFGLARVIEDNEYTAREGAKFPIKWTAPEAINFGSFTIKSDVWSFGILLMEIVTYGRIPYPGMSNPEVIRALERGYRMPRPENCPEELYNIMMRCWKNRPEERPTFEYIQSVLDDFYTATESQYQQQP
Chain of EPHB2 (P29323 whole entry, looked up): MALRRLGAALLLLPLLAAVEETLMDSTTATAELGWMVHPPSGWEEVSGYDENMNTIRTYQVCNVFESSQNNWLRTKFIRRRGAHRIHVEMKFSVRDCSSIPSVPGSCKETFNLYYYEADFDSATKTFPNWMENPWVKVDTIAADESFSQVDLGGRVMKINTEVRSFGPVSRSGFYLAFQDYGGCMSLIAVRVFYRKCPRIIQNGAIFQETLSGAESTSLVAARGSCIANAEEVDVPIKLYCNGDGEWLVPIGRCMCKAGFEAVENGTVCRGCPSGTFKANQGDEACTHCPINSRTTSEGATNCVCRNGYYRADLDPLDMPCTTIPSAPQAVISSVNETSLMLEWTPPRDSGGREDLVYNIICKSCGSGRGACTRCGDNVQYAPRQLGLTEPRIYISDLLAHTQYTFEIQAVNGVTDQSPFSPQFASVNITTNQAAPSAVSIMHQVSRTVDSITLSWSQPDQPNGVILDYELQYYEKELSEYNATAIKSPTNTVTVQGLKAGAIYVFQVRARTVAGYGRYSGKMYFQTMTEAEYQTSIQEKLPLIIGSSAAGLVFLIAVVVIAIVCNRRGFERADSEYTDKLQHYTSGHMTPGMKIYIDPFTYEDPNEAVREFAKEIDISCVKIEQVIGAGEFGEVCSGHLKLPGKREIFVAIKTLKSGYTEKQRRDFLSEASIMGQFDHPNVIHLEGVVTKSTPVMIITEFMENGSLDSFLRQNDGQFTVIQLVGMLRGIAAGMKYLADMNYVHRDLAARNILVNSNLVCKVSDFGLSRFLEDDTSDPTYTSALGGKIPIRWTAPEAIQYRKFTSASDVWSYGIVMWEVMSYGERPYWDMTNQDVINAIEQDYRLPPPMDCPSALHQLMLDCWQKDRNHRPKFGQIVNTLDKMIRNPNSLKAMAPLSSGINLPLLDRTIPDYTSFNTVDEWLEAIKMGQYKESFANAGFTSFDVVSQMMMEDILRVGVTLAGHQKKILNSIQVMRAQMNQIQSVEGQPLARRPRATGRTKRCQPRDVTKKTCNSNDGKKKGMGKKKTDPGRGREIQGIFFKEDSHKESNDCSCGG
Chain of Fes (P07332 whole entry, looked up): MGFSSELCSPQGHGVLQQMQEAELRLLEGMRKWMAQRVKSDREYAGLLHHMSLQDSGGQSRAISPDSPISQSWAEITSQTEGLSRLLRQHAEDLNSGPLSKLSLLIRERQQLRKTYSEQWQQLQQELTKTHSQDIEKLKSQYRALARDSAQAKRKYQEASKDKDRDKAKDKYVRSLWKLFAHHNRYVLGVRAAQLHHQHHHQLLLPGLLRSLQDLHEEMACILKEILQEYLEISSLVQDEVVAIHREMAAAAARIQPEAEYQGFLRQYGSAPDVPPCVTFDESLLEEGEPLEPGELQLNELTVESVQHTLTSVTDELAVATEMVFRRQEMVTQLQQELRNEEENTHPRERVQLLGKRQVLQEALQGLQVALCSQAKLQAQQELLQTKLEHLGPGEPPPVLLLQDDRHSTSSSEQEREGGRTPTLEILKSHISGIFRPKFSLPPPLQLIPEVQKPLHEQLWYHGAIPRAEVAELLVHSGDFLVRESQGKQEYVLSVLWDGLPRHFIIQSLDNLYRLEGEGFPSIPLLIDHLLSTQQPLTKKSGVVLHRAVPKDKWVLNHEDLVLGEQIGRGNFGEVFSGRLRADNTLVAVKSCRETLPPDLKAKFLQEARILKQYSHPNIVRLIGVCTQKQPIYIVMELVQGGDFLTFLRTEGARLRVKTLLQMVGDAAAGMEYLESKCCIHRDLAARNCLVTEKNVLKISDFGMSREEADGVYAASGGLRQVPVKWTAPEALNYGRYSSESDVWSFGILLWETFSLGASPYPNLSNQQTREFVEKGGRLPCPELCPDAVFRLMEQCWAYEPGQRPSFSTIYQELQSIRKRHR

| Sequence | phosphorylation enrichment (Fyn) | phosphorylation enrichment (Fer (mouse)) | phosphorylation enrichment (EPHB2) | phosphorylation enrichment (Jak2) | phosphorylation enrichment (c-Src) | phosphorylation enrichment (Hck) | phosphorylation enrichment (EPHB1) | phosphorylation enrichment (FGFR1) | phosphorylation enrichment (MERTK) | phosphorylation enrichment (Fes) | phosphorylation enrichment (AncSZ) | phosphorylation enrichment (FGFR3) | phosphorylation enrichment (c-Abl (mouse)) | SH2 binding enrichment (c-Src SH2) | SH2 binding enrichment (Grb2 SH2) | SH2 binding enrichment (SHP2-C SH2) |
| --- | --- | --- | --- | --- | --- | --- | --- | --- | --- | --- | --- | --- | --- | --- | --- | --- |
| PGPPGYCDSSQ [COL12A1_Y3043] | 0.643 | 0.77 | 0.492 | 1.08 | 0.594 | 0.639 | 0.914 | 0.461 | 0.505 | 1.41 | 1.03 | 0.941 | 0.707 | 0.603 | 0.979 | 0.692 |
| IFHENYNAGTF [CFI_Y421_YF] | 0.461 | 0.435 | 0.388 | 0.615 | 0.456 | 0.417 | 0.36 | 0.473 | 0.415 | 0.647 | 0.612 | 0.465 | 0.578 | 0.479 | 0.869 | 0.684 |
| QRVLLYVQRET [GRHL3_Y518_R520Q] | 0.673 | 0.885 | 0.763 | 1.89 | 0.57 | 0.509 | 1.04 | 0.855 | 0.452 | 1.89 | 1.82 | 1.13 | 1.36 | 1.03 | 1.66 | 1.52 |
| ETELPYQELQG [TYROBP_Y91_S89L] | 0.737 | 0.997 | 0.58 | 1.02 | 2.5 | 0.941 | 0.535 | 1.65 | 0.566 | 1.18 | 1.58 | 1.5 | 0.872 | 0.84 | 0.727 | 0.504 |
| VHNLDYFKKTT [FGFR3_Y647_YF] | 0.471 | 0.428 | 0.425 | 0.857 | 0.523 | 0.46 | 0.512 | 0.437 | 0.505 | 0.91 | 0.806 | 0.617 | 0.573 | 0.406 | 0.782 | 0.678 |
| LPKDLYLISQM [LARP4_Y141_S137P] | 0.69 | 0.646 | 0.757 | 1.46 | 0.788 | 0.891 | 0.784 | 1.15 | 0.785 | 2.13 | 2.15 | 1.55 | 1.2 | 0.406 | 1.02 | 0.795 |
| IFRASYFRRGD [LTK_Y676_YF] | 0.512 | 0.439 | 0.438 | 0.668 | 0.582 | 0.613 | 0.431 | 0.465 | 0.571 | 0.879 | 0.923 | 0.469 | 0.63 | 0.315 | 0.382 | 0.509 |
| YDDGKYVYVVT [RPS6KA3_Y488] | 1.43 | 0.811 | 0.669 | 1.34 | 1.3 | 1.04 | 0.724 | 1.63 | 0.941 | 1.27 | 1.25 | 1.38 | 0.768 | 0.595 | 0.907 | 0.531 |
| VIVRMYDFHVL [RPF2_Y109_G106V_YF] | 0.555 | 4.04 | 1.55 | 0.901 | 0.473 | 0.488 | 1.33 | 0.462 | 1.87 | 1.01 | 1.08 | 0.597 | 0.885 | 1.12 | 1.75 | 1.28 |
| FGMSTYITRED [FNDC3B_Y180_YF] | 0.676 | 0.533 | 0.45 | 0.95 | 0.692 | 0.743 | 0.776 | 0.581 | 0.437 | 1.11 | 0.961 | 0.676 | 0.693 | 0.563 | 0.802 | 0.745 |
| FFRDGHMPRQF [GSS_Y270_Y270H_YF] | 0.374 | 0.355 | 0.363 | 0.491 | 0.365 | 0.357 | 0.367 | 0.392 | 0.324 | 0.612 | 0.472 | 0.487 | 0.505 | 0.494 | 0.741 | 0.611 |
| RIFDFYSARKT [STOX1_Y858_A863T_YF] | 0.485 | 0.311 | 0.553 | 0.417 | 0.624 | 1.37 | 0.467 | 0.519 | 0.595 | 0.833 | 0.715 | 0.496 | 0.491 | 0.517 | 0.977 | 0.907 |
| FQGRRYDCDCD [CRYGS_Y21] | 0.428 | 0.368 | 0.383 | 0.751 | 0.471 | 0.5 | 0.373 | 0.478 | 0.529 | 0.936 | 0.875 | 0.497 | 0.647 | 0.571 | 0.926 | 0.687 |
| SRPHLYGTPSR [ADGRE2_Y670] | 0.615 | 0.402 | 0.617 | 0.588 | 0.441 | 0.565 | 0.493 | 0.426 | 0.58 | 0.587 | 0.609 | 0.619 | 0.538 | 1.09 | 1.54 | 0.825 |
| QRRLVYYERGA [RYR1_Y245_G248R] | 0.533 | 0.226 | 0.345 | 0.391 | 0.426 | 0.53 | 0.448 | 0.499 | 0.319 | 0.537 | 0.427 | 0.48 | 0.368 | 0.662 | 0.951 | 0.677 |
| RDLTDYLMKIL [ACTA1_Y190] | 0.554 | 0.581 | 0.529 | 1.16 | 0.613 | 0.551 | 0.58 | 0.539 | 0.477 | 1.21 | 1.09 | 0.896 | 0.791 | 1.15 | 1.43 | 1.37 |
| TDEYEYDELIV [TGM1_Y136] | 0.57 | 0.526 | 0.566 | 0.785 | 0.454 | 0.775 | 0.588 | 0.664 | 0.436 | 1.2 | 1.3 | 0.805 | 0.705 | 0.786 | 1.07 | 0.761 |
| SNSATYSGSVA [PDLIM5_Y382] | 0.561 | 0.392 | 0.497 | 0.48 | 0.498 | 0.56 | 0.347 | 0.432 | 0.516 | 0.624 | 0.748 | 0.483 | 0.576 | 0.39 | 0.691 | 0.572 |
| PEADKYRLTYA [FGG_Y300] | 0.626 | 0.828 | 1.09 | 1.13 | 0.604 | 1.62 | 0.832 | 0.888 | 0.777 | 1.51 | 1.61 | 1.14 | 0.825 | 0.392 | 0.806 | 0.736 |
| ALTDNYMYLVI [HAGH_Y61] | 0.848 | 3.5 | 8.35 | 2.46 | 1.03 | 1.34 | 9.55 | 8.82 | 3.34 | 1.49 | 1.43 | 6.43 | 0.813 | 0.437 | 0.819 | 0.544 |
| FDKEFYSVHNK [MET_Y1235_YF] | 0.479 | 0.561 | 0.638 | 0.866 | 0.641 | 0.803 | 0.432 | 0.528 | 0.721 | 0.947 | 0.806 | 0.717 | 0.959 | 0.543 | 0.917 | 0.841 |
| EYKDAYKFAAD [BRDT_Y335] | 0.499 | 0.559 | 0.553 | 0.722 | 0.495 | 0.542 | 0.59 | 0.511 | 0.475 | 1.14 | 0.984 | 0.632 | 0.666 | 0.864 | 0.861 | 0.572 |
| QEGPEYWDQQT [HLA-A_Y83_E87Q] | 0.741 | 0.884 | 0.967 | 2.33 | 0.937 | 0.58 | 1.31 | 1.01 | 0.649 | 2.21 | 2.09 | 1.21 | 1.78 | 0.421 | 0.664 | 0.612 |
| REEKNYKHKET [BCLAF1_Y459_L461H] | 0.436 | 0.647 | 0.55 | 0.571 | 0.741 | 0.53 | 0.422 | 0.635 | 0.688 | 1.45 | 0.829 | 0.431 | 0.917 | 0.624 | 0.93 | 0.46 |
| HEKFLYFLPAS [DYNC2H1_Y346] | 1.87 | 0.931 | 1.3 | 2.82 | 1.08 | 2.12 | 1.72 | 1.08 | 3.9 | 1.8 | 2.17 | 1.82 | 1.4 | 0.676 | 0.925 | 0.868 |
| ASFPLYEPAKM [MKI67_Y340] | 4.36 | 16.3 | 21.1 | 0.484 | 2.97 | 8.34 | 18.1 | 0.426 | 3.18 | 1.52 | 0.789 | 0.493 | 0.635 | 0.535 | 0.889 | 0.707 |
| SISFDYCRVPM [BST2_Y8_T4I_YF] | 0.463 | 0.533 | 1.36 | 1.43 | 0.528 | 0.546 | 2.13 | 1.43 | 0.547 | 1.15 | 1.65 | 1.39 | 0.785 | 0.39 | 0.726 | 0.65 |
| EPVSDYINANV [PTPN11_Y304_I309V] | 0.393 | 0.384 | 0.486 | 0.754 | 0.37 | 0.428 | 0.42 | 0.541 | 0.4 | 0.855 | 1.03 | 0.585 | 0.567 | 0.466 | 1.14 | 0.676 |
| FQEKGYNKEPR [CHRND_Y38_L42P] | 0.649 | 0.571 | 0.627 | 0.691 | 0.57 | 0.655 | 0.738 | 0.587 | 0.644 | 0.868 | 0.895 | 0.569 | 0.912 | 0.67 | 1 | 0.981 |
